Reference: PMC3461361

Molecular target: Invasion plasmid antigen B (IpaB) (S. flexneri)
Assay: native gel or EMSA

Invasion plasmid antigen B (IpaB) (natural protein)
stoichiometry N: > 10
